This note sets out measurements from patent publication US20080207501A1.

This assay concerns the target T1, amylin receptor (nucleus accumbens membranes prepared from rat brain) (rat), P32214.
T1 chain 1: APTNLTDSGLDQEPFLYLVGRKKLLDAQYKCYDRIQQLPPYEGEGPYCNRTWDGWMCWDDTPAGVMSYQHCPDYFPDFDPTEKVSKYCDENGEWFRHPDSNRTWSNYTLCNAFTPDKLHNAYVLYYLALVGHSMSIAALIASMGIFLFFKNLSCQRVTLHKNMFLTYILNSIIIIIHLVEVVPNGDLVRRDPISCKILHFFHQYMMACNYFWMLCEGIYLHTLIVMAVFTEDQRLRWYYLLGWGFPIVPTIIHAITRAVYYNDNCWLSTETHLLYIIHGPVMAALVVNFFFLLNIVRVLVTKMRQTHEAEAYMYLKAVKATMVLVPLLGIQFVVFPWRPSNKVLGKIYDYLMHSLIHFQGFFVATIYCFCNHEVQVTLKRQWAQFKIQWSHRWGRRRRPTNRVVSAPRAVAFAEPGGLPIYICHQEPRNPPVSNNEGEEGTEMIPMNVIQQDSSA
T1 chain 2: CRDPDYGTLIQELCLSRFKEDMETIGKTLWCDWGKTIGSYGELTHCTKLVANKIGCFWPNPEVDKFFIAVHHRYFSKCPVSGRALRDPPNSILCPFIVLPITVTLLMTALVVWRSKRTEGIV
As to the kind of experiment: radioligand displacement, 125I-rat amylin, rat nucleus accumbens membranes. Background: Loss of bound radioactivity is the signal in a displacement assay; it reports binding, not function.

By IC50 is commonly meant the midpoint of a concentration-inhibition curve. A high value points to weaker potency. CGNLSTCMLGTYTQDFNKFHTFPQTAIGVGAP (modifications not checked) [r/h Calcitonin]: the IC50 amounted to 100 nM.
